In PMC10975748 (2024):

Biological target: Kv1.2 (Homo sapiens, UniProt P16389)
Assay: patch-clamp electrophysiology

Sequence of Kv1.2 (P16389 whole entry): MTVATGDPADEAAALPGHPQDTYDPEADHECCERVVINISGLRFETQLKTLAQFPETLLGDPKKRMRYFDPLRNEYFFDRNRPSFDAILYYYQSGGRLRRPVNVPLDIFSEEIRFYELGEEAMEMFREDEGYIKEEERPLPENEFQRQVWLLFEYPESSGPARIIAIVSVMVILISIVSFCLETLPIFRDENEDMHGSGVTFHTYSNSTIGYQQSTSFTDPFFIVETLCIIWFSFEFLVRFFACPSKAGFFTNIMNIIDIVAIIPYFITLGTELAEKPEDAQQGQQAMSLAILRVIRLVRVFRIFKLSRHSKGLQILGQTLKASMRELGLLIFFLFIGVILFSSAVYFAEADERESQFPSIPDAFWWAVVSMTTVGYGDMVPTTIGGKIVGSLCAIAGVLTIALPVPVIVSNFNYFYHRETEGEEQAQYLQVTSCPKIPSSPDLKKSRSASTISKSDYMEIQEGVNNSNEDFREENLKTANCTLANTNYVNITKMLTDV

B1: Cm39 (peptide)
chain: TFINHKCKSSSECLPACKAAIGRASGKCINSTCKCYY
With B1 the Kd was 65 nM.
